US20120164137A1 (MORPHOTEK, published 2012)

B1: MORAb-003 anti-FRA antibody, lot NB859-25 (harvested 14 days after initiation of culture) (antibody, human IgG1, kappa, V domains shown)
VH: EVQLVESGGGVVQPGRSLRLSCSASGFTFSGYGLSWVRQAPGKGLEWVAMISSGGSYTYYADSVKGRFAISRDNAKNTLFLQMDSLRPEDTGVYFCARHGDDPAWFAYWGQGTPVTVSS
VL: DIQLTQSPSSLSASVGDRVTITCSVSSSISSNNLHWYQQKPGKAPKPWIYGTSNLASGVPSRFSGSGSGTDYTFTISSLQPEDIATYYCQQWSSYPYMYTFGQGTKVEIKR
modifications: N-linked neutral glycans at Asn299 in SEQ ID NO: 5
notes: also called Day 14 harvest; positive control (round 3)
B2: MORAb-003 anti-FRA antibody, lot NB810-12 (low temperature; harvested 14 days after initiation of culture) (antibody, human IgG1, kappa, V domains shown)
VH: B1 VH
VL: B1 VL
modifications: N-linked neutral glycans at Asn299 in SEQ ID NO: 5
B3: MORAb-003 anti-FRA antibody, lot NB810-13 (high osmolarity; harvested 14 days after initiation of culture) (antibody, human IgG1, kappa, V domains shown)
VH: B1 VH
VL: B1 VL
modifications: N-linked neutral glycans at Asn299 in SEQ ID NO: 5
B4: MORAb-003 anti-FRA antibody, lot NB859-28 (low DO; harvested 14 days after initiation of culture) (antibody, human IgG1, kappa, V domains shown)
VH: B1 VH
VL: B1 VL
modifications: N-linked neutral glycans at Asn299 in SEQ ID NO: 5
notes: also called low DO (round 3)
B5: MORAb-003 anti-FRA antibody, lot NB809-68 (high CO2; harvested 13 days after initiation of culture) (antibody, human IgG1, kappa, V domains shown)
VH: B1 VH
VL: B1 VL
modifications: N-linked neutral glycans at Asn299 in SEQ ID NO: 5
B6: MORAb-003 anti-FRA antibody, lot NB809-70 (CuCl supplement; harvested 13 days after initiation of culture) (antibody, human IgG1, kappa, V domains shown)
VH: B1 VH
VL: B1 VL
modifications: N-linked neutral glycans at Asn299 in SEQ ID NO: 5
B7: MORAb-003 anti-FRA antibody, lot NB859-24 (harvested 10 days after initiation of culture) (antibody, human IgG1, kappa, V domains shown)
VH: B1 VH
VL: B1 VL
modifications: N-linked neutral glycans at Asn299 in SEQ ID NO: 5
notes: also called Day 10 harvest
B8: MORAb-003 anti-FRA antibody, lot NB809-67 (low DO; harvested 13 days after initiation of culture) (antibody, human IgG1, kappa, V domains shown)
VH: B1 VH
VL: B1 VL
modifications: N-linked neutral glycans at Asn299 in SEQ ID NO: 5
B9: MORAb-003 anti-FRA antibody, lot NB810-11 (galactose supplement; harvested 14 days after initiation of culture) (antibody, human IgG1, kappa, V domains shown)
VH: B1 VH
VL: B1 VL
modifications: N-linked neutral glycans at Asn299 in SEQ ID NO: 5
B10: MORAb-003 anti-FRA antibody, lot NB859-26 (harvested 17 days after initiation of culture) (antibody, human IgG1, kappa, V domains shown)
VH: B1 VH
VL: B1 VL
modifications: N-linked neutral glycans at Asn299 in SEQ ID NO: 5
notes: also called Day 17 harvest
B11: MORAb-003 anti-FRA antibody, lot NB809-66 (0.5 mM Na butyrate; harvested 13 days after initiation of culture) (antibody, human IgG1, kappa, V domains shown)
VH: B1 VH
VL: B1 VL
modifications: N-linked neutral glycans at Asn299 in SEQ ID NO: 5
B12: MORAb-003 anti-FRA antibody, lot NB809-65 (positive control; harvested 13 days after initiation of culture) (antibody, human IgG1, kappa, V domains shown)
VH: B1 VH
VL: B1 VL
modifications: N-linked neutral glycans at Asn299 in SEQ ID NO: 5
notes: also called Pos. ctl; positive control (round 2)
B13: MORAb-003 anti-FRA antibody, lot NB859-27 (harvested 20 days after initiation of culture) (antibody, human IgG1, kappa, V domains shown)
VH: B1 VH
VL: B1 VL
modifications: N-linked neutral glycans at Asn299 in SEQ ID NO: 5
notes: also called Day 20 harvest
B14: MORAb-003 anti-FRA antibody, lot NB809-69 (10 mM Na butyrate; harvested 13 days after initiation of culture) (antibody, human IgG1, kappa, V domains shown)
VH: B1 VH
VL: B1 VL
modifications: N-linked neutral glycans at Asn299 in SEQ ID NO: 5
B15: MORAb-003 anti-FRA antibody, lot NB810-10 (positive control; harvested 14 days after initiation of culture) (antibody, human IgG1, kappa, V domains shown)
VH: B1 VH
VL: B1 VL
modifications: N-linked neutral glycans at Asn299 in SEQ ID NO: 5
notes: also called Pos. ctl; positive control (round 1)
B16: MORAb-003 anti-FRA antibody reference standard (antibody, human IgG1, kappa, V domains shown)
VH: B1 VH
VL: B1 VL
modifications: N-linked neutral glycans at Asn299 in SEQ ID NO: 5

These binders were tested against T1, Human FRA on IGROV-1 human ovarian adenocarcinoma cells (human, UniProt P15328 25-234) (assay: cell-based or functional assay).
T1 sequence (P15328 25-234 limits assumed): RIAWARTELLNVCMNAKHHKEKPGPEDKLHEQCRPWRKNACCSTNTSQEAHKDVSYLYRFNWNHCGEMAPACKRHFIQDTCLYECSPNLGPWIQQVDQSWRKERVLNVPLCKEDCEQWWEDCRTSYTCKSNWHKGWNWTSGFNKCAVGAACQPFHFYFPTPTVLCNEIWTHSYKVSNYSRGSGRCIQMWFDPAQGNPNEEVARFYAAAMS

Binder	INTL % (0 Min) [%]	INTL % (15 min) [%]	INTL % (30 min) [%]	INTL % (60 min) [%]	INTL % (150 min) [%]
B1	0	1	20	44	61
B2	0	3	21	39	55
B3	0	–	17	40	62
B4	0	–	19	44	53
B5	0	4	14	36	52
B6	0	6	16	37	58
B7	0	1	18	40	58
B8	0	3	14	34	53
B9	0	3	6	29	50
B10	0	–	23	43	56
B11	0	3	8	31	50
B12	0	3	13	33	52
B13	0	1	19	40	51
B14	0	4	14	36	56
B15	0	4	9	32	56

Biological target: T1, Human FRA on IGROV-1 human ovarian …
Experiment: cell-based or functional assay
Remark: another data set of the same source

Binder	Internalization IC50 [µg/mL]	Half-Maximal Internalization Constant [min]
B16	0.014	–
B1	0.032	42
B2	0.025	41.2
B3	0.99	49.6
B4	–	36.5
B5	0.028	46.5
B6	0.027	53.3
B7	0.015	44.6
B8	0.029	50.7
B9	0.019	56.6
B10	0.036	36.6
B11	0.015	53.5
B12	0.014	51.7
B13	0.023	37.3
B14	0.024	51.2
B15	1.63	58.4

These binders were tested against T2, Recombinant human folate receptor alpha (FRA) (human, UniProt P15328 25-234) (assay: SPR, FRA on CM5 chip, parallel line analysis; reference standard = 100%).
T2 construct: Immobilised on a CM5 chip by amine coupling; also called FR-alpha
T2 sequence (P15328 25-234 limits assumed): as above
Procedure: The surface was regenerated between cycles by flushing with 10 mM glycine pH 2.0.

Binder	Measured Potency (%)
B1	51.9
B2	87.3
B3	72.6
B4	44.5
B5	50.5
B6	48
B7	33.8
B8	56.2
B9	84.7
B10	27.5
B11	61.5
B12	49.7
B13	53.3
B14	49.3
B15	85.5

Biological target: T1, Human FRA on IGROV-1 human ovarian …
Experiment: cell-based or functional assay
Remark: another data set of the same source

Binder	IC50 (Hum-ZAP secondary immunotoxin killing of IGROV-1 cells) [ng·mL]
B16	14
B1	32
B2	25
B3	990
B5	28
B6	27
B7	15
B8	29
B9	19
B10	36
B11	15
B12	14
B13	23
B14	24
B15	1630
